Experimental findings from US20230227577A1 (MYTHIC THERAPEUTICS, published 2023) are described below.

The target of test [1] is T1, DLL3 target antigen coated on Octet SA tips (binning experiment) (Homo sapiens (Human), UniProt Q9NYJ7 27-492, Probably biotinylated for capture on streptavidin (SA) tips. The site is not stated.).
T1 sequence: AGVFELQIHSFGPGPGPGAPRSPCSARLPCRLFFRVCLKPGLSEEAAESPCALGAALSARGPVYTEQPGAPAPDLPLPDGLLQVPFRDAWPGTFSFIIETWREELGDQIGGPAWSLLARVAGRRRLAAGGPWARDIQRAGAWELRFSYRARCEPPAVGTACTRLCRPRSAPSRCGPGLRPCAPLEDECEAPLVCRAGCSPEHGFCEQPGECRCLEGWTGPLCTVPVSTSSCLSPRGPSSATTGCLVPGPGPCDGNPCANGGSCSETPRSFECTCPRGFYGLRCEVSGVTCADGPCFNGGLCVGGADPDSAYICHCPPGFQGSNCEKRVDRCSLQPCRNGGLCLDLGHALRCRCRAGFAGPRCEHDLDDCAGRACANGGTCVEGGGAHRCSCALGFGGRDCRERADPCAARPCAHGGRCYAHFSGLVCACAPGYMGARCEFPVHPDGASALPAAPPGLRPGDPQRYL
Kind of test: Octet binning on DLL3-coated SA tips; competitor: 2HCE27. The method, then: (§1) Antibody binning experiments were carried out for 5 anti-DLL3 VHHs and an anti-human DLL3 BiTE (SEQ ID NO: 756). The target antigen was coated on a series of Octet SA tips. Each series of tips was first soaked in a periplasmic extract containing one specific VHH. After the response signals reached saturation, the tips were transferred to a mix of PEs containing again the first VHH (at the same concentration) plus a different VHH (termed secondary VHH) for each tip of the series. Secondary VHH that still bind the target antigen in the presence of the first VHH will show an increased response, as compared to the binding response of the first VHH alone. This was repeated for each VHH as primary VHH until all VHH were tested against each other in both directions (as primary and as secondary binder). From the response data, the bins were deduced for each VHH. 2HCE117 and 3HCE4 show competition with the human DLL3 BiTEs, whereas 3HCE56 and 3HCE87 show a partial competition.
(In general: Biolayer interferometry detects binding as a change in optical thickness at a sensor tip.)

Test [2] has as its target T2, recombinant human DLL3 protein (human, UniProt Q9NYJ7 27-492, limits assumed).
T2 construct: also called rhu DLL3; human biotinylated DLL3
T2 sequence (looked up): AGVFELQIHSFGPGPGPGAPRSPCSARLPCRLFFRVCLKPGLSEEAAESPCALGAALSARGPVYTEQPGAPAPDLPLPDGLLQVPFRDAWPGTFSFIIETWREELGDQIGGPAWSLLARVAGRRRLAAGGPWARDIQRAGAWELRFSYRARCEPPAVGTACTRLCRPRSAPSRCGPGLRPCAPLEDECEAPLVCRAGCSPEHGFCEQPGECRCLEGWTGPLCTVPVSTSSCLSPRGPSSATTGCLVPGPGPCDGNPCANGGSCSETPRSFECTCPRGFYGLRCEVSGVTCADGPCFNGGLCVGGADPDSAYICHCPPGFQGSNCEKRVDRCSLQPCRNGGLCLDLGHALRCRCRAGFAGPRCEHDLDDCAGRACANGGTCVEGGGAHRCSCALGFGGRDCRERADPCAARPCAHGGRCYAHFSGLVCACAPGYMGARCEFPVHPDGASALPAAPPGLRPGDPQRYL
Kind of test: Fortebio Octet Red, DLL3 immobilised on tips, dilution series of the VHH, 1:1 binding model; koff error 6.05E-07; Full R2 0.9994. The method, then:
(§2) Additional experiments were carried out to further characterize the binding properties of the anti-DLL3 constructs. Binding properties tested include dissociation constant (KD), off-rate (koff), binding to DLL3 protein by ELISA and binding to CHO cells expressing human, cyno or mouse DLL3. To obtain off-rate (koff), human biotinylated DLL3 was immobilized on Octet SA tips, and cynomolgus or mouse DLL3 was immobilized on Octet AR2G tips. For each DLL3 protein, the binding to a dilution series of each anti-DLL3 construct was measured using Fortebio Octet Red. The dissociation constant (KD), off-rate (koff) and other kinetic parameters for each anti-DLL3 construct were calculated using a 1:1 binding model. In addition, binding of these anti-DLL3 constructs to CHO cells expressing human, cyno or mouse DLL3 protein was analyzed using flow cytometry (FACS).

Test [3] has as its target T2, recombinant human DLL3 protein. Kind of test: Fortebio Octet Red, DLL3 immobilised on tips, dilution series of the VHH, 1:1 binding model; KD error 1.39E-11; Full R2 0.9994. The protocol:
as §2

For another test, the target named is T3, mouse DLL3 protein (mouse, UniProt O88516 33-490, limits assumed).
T3 construct: also called murine DLL3
T3 sequence (looked up): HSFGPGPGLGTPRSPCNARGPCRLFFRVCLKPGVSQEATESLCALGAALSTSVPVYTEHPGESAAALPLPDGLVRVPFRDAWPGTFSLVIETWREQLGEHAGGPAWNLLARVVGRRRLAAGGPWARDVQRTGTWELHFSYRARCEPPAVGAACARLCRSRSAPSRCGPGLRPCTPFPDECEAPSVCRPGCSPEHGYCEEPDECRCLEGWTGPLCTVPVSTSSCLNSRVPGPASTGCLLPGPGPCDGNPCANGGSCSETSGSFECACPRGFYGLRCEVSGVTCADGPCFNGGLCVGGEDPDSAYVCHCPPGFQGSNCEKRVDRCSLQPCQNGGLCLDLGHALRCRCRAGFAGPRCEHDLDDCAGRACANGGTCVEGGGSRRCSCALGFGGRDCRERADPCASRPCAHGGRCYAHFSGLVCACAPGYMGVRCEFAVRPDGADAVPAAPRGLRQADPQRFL
Kind of test: Octet (DLL3 on AR2G tips), ELISA and FACS; values only in FIG. 3.

The target of another test is T4, mouse DLL3 on CHO cells (mouse, UniProt O88516 33-592).
T4 construct: whole, on cells; also called CHO cells expressing mouse DLL3
T4 sequence (looked up): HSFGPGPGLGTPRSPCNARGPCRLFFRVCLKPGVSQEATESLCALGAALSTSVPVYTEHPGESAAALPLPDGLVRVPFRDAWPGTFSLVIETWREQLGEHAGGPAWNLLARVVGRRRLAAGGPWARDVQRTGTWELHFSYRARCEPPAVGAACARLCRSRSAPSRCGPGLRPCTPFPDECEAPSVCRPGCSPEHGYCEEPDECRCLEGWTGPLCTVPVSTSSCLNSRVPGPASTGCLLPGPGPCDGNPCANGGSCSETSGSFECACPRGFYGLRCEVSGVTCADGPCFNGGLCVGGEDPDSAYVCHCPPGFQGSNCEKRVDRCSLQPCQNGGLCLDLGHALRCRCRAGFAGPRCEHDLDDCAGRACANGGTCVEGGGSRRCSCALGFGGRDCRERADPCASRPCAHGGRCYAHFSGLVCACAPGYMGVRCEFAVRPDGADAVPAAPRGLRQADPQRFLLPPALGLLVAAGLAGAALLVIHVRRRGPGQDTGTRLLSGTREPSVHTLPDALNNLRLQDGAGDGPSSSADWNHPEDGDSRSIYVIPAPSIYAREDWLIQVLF
Kind of test: flow cytometry (FACS) on CHO cells expressing mouse DLL3. The protocol: as §2

Another test addresses T5, DLL3 (ELISA DLL3).
T5 construct: also called DLL3 protein in ELISA
T5 chain: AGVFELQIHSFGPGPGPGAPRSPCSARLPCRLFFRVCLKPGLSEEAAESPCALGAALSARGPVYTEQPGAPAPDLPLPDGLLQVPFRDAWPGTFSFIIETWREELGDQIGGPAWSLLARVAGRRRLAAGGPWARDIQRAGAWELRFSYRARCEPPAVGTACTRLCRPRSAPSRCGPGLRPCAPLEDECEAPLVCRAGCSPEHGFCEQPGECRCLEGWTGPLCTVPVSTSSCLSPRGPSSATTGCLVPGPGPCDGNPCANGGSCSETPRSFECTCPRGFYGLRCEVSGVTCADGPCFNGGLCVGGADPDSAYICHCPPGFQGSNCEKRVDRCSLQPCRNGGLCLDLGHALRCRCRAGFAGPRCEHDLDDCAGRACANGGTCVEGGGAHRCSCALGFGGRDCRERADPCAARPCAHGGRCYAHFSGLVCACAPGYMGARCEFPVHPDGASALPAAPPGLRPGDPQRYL
Kind of test: ELISA, ratio of the signal on DLL3 to the signal on the control.

Test [4] concerns the target T1, DLL3 target antigen coated on Octet SA …. Kind of test: Octet binning on DLL3-coated SA tips; competitor: 3HCE87. The method, then: as §1

B1: 2HCE27 anti-DLL3 VHH (VHH)
VHH: QVQLQESGGGLVQAGGSLRLSCAASGRTFRSYAMGWFRQAPGKEREFIAVIIMSDGSTSYADSVKGRFTISRDNAKNTLYLQMNSLKPEDTAVYYCAARRDYFTGVYDYWGQGTQVTVSS
notes: In the binning assay it was used as a periplasmic extract; also called anti-DLL3 (2HCE27)
In the case of B1, the figures for the “binning response (unit not given)” value in test [1] and in test [4] were 0 and 87.5, respectively. Also, the koff in test [2] turned out to be 0.000638 s⁻¹. For the same molecule, the equilibrium dissociation constant (Kd) in test [3] amounted to 7.89 nM. The binding result in the test with mouse DLL3 protein and in the test with mouse DLL3 on CHO cells was “binds” each time. For the same molecule, the DLL3 / control with DLL3 (ELISA DLL3) was 33.3.

For orientation: koff means a measure of how fast the partners let go of each other. Usually Kd stands for the concentration at which binding is half-saturated.
